B1: A9V7Z4 peptide (EDETAL) (peptide)
peptide: EDETAL
B2: A9UXE1 peptide (QDETAL) (peptide)
peptide: QDETAL
B3: TYRP1 peptide (PNQSVV) (peptide)
peptide: PNQSVV
B4: GAIP peptide (QSSSEA) (peptide)
peptide: QSSSEA
B5: HPV16 E6 peptide (SSRTRRETQL) (peptide)
peptide: SSRTRRETQL
B6: GIRK3 peptide (ESESKV) (peptide)
peptide: ESESKV
B7: B1AR peptide (ASESKV) (peptide)
peptide: ASESKV
B8: A9UP44 peptide (QSESRL) (peptide)
peptide: QSESRL
B9: BPIX peptide (WDETNL) (peptide)
peptide: WDETNL

Target: T1, DLG1-1 PDZ (DLG1 PDZ1, residues 220-317) (human, UniProt Q12959 220-317)
T1 construct: not shown: His tag, N-terminal, kept
T1 sequence (Q12959 220-317): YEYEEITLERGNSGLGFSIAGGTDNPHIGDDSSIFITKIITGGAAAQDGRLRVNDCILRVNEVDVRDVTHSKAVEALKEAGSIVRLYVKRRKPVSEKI
Experiment: fluorescence polarisation
Conditions: both partners purified

Q: For B1, which Ki is on record?
A: The Ki was 460 ± 190 µM.

Q: For B2, which Ki is on record?
A: Its Ki is 190 ± 20 µM.

Q: How did the Ki turn out when B3 was run?
A: Its Ki is 46 ± 21 µM.

Q: For B4, which Ki is on record?
A: The Ki was 980 ± 180 µM.

Q: With B5 as the binder, how does the Ki read?
A: The Ki was 23 ± 5 µM.

Q: With B6 as the binder, how does the Ki read?
A: The Ki was 350 ± 20 µM.

Q: How did the Ki turn out when B7 was run?
A: Its Ki is 44 ± 23 µM.

Q: How did the Ki turn out when B8 was run?
A: Its Ki is 39 ± 25 µM.

Q: For B9, which Ki is on record?
A: Its Ki is 460 ± 140 µM.
